These results are taken from patent publication CN115716874A (SHENZHEN ZHUORUN BIOTECHNOLOGY CO LTD, dated 2023).

Usually Kd stands for a measure of binding affinity in units of concentration. Lower therefore signals tighter binding.

For this assay, the target named is T1, AFP-L3与凝集素复合物 (Lens culinaris, UniProt P02870 31-210; P02870 218-269, limits assumed).
T1 construct: Non-covalent complex of recombinant AFP (AFP-L3 glycoform) with lentil lectin, mass ratio AFP-L3:lectin 1:5; immobilised on a CM5 chip for SPR; Native LCA consists of processed alpha and beta chains; also called AFP-L3与LCA复合物; AFP-L3-LCA复合物
T1 sequence 1: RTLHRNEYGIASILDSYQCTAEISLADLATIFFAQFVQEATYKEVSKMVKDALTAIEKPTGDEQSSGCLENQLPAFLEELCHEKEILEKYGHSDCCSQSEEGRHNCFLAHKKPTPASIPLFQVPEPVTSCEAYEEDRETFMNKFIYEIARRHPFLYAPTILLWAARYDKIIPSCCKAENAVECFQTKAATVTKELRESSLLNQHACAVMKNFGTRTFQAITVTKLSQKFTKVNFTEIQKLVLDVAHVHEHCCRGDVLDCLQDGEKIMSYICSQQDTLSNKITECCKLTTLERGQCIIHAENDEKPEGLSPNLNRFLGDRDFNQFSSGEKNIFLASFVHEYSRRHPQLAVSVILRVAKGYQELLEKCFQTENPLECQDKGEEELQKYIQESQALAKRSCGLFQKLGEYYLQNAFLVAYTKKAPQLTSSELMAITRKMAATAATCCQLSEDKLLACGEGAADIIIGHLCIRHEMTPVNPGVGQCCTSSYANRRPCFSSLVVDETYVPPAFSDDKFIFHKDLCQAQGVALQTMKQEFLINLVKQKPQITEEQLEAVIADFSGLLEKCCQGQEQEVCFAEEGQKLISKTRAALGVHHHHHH
T1 sequence 2: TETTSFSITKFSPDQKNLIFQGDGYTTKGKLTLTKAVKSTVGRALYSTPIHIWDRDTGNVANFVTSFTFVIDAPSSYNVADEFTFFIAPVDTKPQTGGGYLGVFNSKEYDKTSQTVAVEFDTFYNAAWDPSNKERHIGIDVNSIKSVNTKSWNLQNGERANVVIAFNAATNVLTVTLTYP
T1 sequence 3: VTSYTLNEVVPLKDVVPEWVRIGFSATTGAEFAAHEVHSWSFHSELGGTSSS
Description: SPR, Biacore T200, complex immobilised on CM5 chip, antibody as analyte.

B1: Ab-03 (antibody, mouse IgG1, kappa, V domains shown)
VH: QVQLQQSGPEVVRPGVSVKISCKGSGYTFTDYAMQWVKQSHAKSLEWIGVISTYNGNTNYNQKFKGKATMTVDKSSSTAYMELARLTSEDSAIYYCARSLYYGSSPYAMDYWGQGTSVTVSS
VL: DIVMSQSPSSLAVSAGEKVTMSCKSSQSLLNSRTRKNYLAWYQQKPGQSPKLLIYWASTRESGVPDRFTGSGSGTDFTLTISSVQAEDLAVYYCKQSYNLFTFGSGTKLEIKR
notes: Mouse hybridoma antibody from ascites, Protein A purified; also called 针对AFP-L3与凝集素复合物的单克隆抗体; Ab-03抗体株
Take B1: the Kd was found to be 2.66 nM.
